Experimental findings from article PMC6175992, “Telomeric Repeat-Binding Factor Homologs in Entamoeba histolytica: New Clues for Telomeric Research” are described below.

This data set addresses T1, rEhTRF-like I (Entamoeba histolytica, UniProt C4M1I9 1-404).
T1 sequence: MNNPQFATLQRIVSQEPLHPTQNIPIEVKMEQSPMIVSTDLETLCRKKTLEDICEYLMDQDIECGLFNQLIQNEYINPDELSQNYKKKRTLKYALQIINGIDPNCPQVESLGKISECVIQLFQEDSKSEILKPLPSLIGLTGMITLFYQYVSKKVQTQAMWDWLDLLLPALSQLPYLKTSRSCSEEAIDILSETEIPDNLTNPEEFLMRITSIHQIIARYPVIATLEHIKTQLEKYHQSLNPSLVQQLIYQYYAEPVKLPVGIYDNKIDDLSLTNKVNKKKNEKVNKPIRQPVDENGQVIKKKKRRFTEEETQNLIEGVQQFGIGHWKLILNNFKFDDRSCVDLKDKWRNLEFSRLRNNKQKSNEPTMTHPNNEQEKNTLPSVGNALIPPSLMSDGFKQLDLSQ
Briefly: EMSA; competed by unlabeled HsTEL and EhTEL; 12 mM HEPES pH 7.9, 60 mM KCl, 5 mM MgCl2, 1 mM EDTA, 4 mM Tris-HCl, 5 mM DTT, 10% glycerol, 4 mM spermidine, 4 mM MgCl (so in the source), 50 ng poly dI-dC, protease inhibitors; 20 min at 4 C; 106.86 uM rEhTRF-like I or 10 ug nuclear extract, 1 ng probe. The note with it: protein: recombinant; tags: His tag (pCold I); label: 32P; 5' overhangs on both strands. In general terms: In EMSA bound probe runs differently from free probe, usually more slowly.

B1: EhTEL (dsDNA)
DNA 1: GCTCTATTAGTATTTTAGTATTTTAGTATTTTAGTATT
DNA 2: CATCTAGAGCAATACTAAAATACTAAAATACTAAAATACTAA
As for B1, the binding result is given as “binds”.

B2: HsTEL (dsDNA)
DNA 1: GCTCTAGGGTTAGGGTTAGGGTTAGGGTTA
DNA 2: CATCTACCCTAACCCTAACCCTAACCCTAA
Regarding B2, the binding result was “binds”.
